{
  "source": "paper PMC4499159",
  "key": {"[1]": {"target": "DNA polymerase beta (Polβ) (rat) (UniProt P06766)", "test": "fluorescence titration", "conditions": "50 mM HEPES pH 8.0, 100 mM NaCl, 4 mM DTT (+10 mM EDTA for APE1), labelled protein from 20 nM, temperature not stated"}, "XRCC1 (human)": {"target": "XRCC1 (human) (UniProt P18887)", "test": "fluorescence titration", "conditions": "50 mM HEPES pH 8.0, 100 mM NaCl, 4 mM DTT (+10 mM EDTA for APE1), labelled protein from 20 nM, temperature not stated"}, "[2]": {"target": "AP endonuclease 1 (APE1) (human) (UniProt P27695)", "test": "fluorescence titration", "conditions": "50 mM HEPES pH 8.0, 100 mM NaCl, 4 mM DTT (+10 mM EDTA for APE1); labelled protein from 20 nM; temperature not stated"}, "[3]": {"target": "X-ray repair cross-complementing protein 1 (human) (UniProt P18887)", "test": "dynamic light scattering; individual proteins or equimolar mixtures at 6 μM; 25 mM HEPES pH 7.5, 100 mM NaCl, 1 mM DTT; 24°C; hydrodynamic radius compared with predicted values"}, "[4]": {"target": "apurinic/apyrimidinic endonuclease 1 (human) (UniProt P27695)", "test": "other fluorescence titration; FAM-labelled protein at 40 nM (fixed) titrated with the unlabelled partner; 50 mM HEPES pH 8.0, 100 mM NaCl, 4 mM DTT; excitation 485 nm, emission 520 nm; EC50 from a four-parameter logistic fit, an apparent equilibrium dissociation constant"}, "[5]": {"target": "X-ray repair cross-complementing protein 1 (human) (UniProt P18887)", "test": "other fluorescence titration; TAF-labelled XRCC1 at 40 nM (fixed) titrated with the unlabelled partner; 50 mM HEPES pH 8.0, 100 mM NaCl, 4 mM DTT; EC50 from a four-parameter logistic fit, apparent"}, "[6]": {"target": "apurinic/apyrimidinic endonuclease 1 (human) (UniProt P27695)", "test": "dynamic light scattering; individual proteins or equimolar mixtures at 6 μM; 25 mM HEPES pH 7.5, 100 mM NaCl, 1 mM DTT; 24°C; hydrodynamic radius compared with predicted values"}, "DNA polymerase β (rat)": {"target": "DNA polymerase β (rat) (UniProt P06766)", "test": "FRET or BRET; FAM-labelled protein (donor, 40 nM, fixed) titrated with the TMR-labelled partner (acceptor); corrected for acceptor signal; E = 1 - Fda/Fd; EC50 is that of the TMR-labelled partner; 50 mM HEPES pH 8.0, 100 mM NaCl, 4 mM DTT; apparent"}, "[7]": {"target": "apurinic/apyrimidinic endonuclease 1 (human) (UniProt P27695)", "test": "FRET or BRET; FAM-labelled protein (donor, 40 nM, fixed) titrated with the TMR-labelled partner (acceptor); corrected for acceptor signal; E = 1 - Fda/Fd; EC50 is that of the TMR-labelled partner; 50 mM HEPES pH 8.0, 100 mM NaCl, 4 mM DTT; apparent"}, "[8]": {"target": "FAM-labeled human apurinic/apyrimidinic endonuclease 1 (human) (UniProt P27695)", "test": "other fluorescence titration; 40 nM FAM-APE1 premixed with 160 nM AP-DNA, titrated with unlabeled partner; 50 mM HEPES pH 8.0, 100 mM NaCl, 4 mM DTT, 10 mM EDTA; EC50 from four-parameter fit, apparent"}, "[9]": {"target": "FAM-labeled human apurinic/apyrimidinic endonuclease 1 (human) (UniProt P27695)", "test": "other fluorescence titration; 40 nM FAM-APE1 premixed with 160 nM gap-DNA, titrated with unlabeled partner; 50 mM HEPES pH 8.0, 100 mM NaCl, 4 mM DTT, 10 mM EDTA; EC50 from four-parameter fit, apparent"}, "[10]": {"target": "FAM-labeled human apurinic/apyrimidinic endonuclease 1 (human) (UniProt P27695)", "test": "other fluorescence titration; 40 nM FAM-APE1 premixed with 160 nM incised AP-DNA, titrated with unlabeled partner; 50 mM HEPES pH 8.0, 100 mM NaCl, 4 mM DTT, 10 mM EDTA; EC50 from four-parameter fit, apparent"}},
  "data": [
    {"substance": "GGCGATTAAGTTGGGNAACGTCAGGGTCTTCC / GGAAGACCCTGACGTTACCCAACTTAATCGCC [AP-DNA]", "values": [
      {"measurement": "K half", "setting": "[1]; N16 of strand 1 = THF abasic site", "result": 20, "unit": "nM"}
    ]},
    {"substance": "GGCGATTAAGTTGGGTAACGTCAGGGTCTTCC (double strand) [ds-DNA]", "values": [
      {"measurement": "K half", "setting": "XRCC1 (human)", "result": 110, "unit": "nM"},
      {"measurement": "K half", "setting": "[2]", "result": 100, "unit": "nM"},
      {"measurement": "K half", "setting": "[1]", "result": 160, "unit": "nM"}
    ]},
    {"substance": "X-ray repair cross-complementing protein 1 (from UniProt P18887 1-633) (natural protein)", "values": [
      {"measurement": "stoichiometry N", "setting": "[3]", "result": 2},
      {"measurement": "EC50", "setting": "[4]", "result": 76, "unit": "nM"},
      {"measurement": "EC50", "setting": "[5]", "result": 73, "unit": "nM"}
    ]},
    {"substance": "apurinic/apyrimidinic endonuclease 1 (from UniProt P27695 1-318) (enzyme)", "values": [
      {"measurement": "stoichiometry N", "setting": "[6]", "result": 2},
      {"measurement": "EC50", "setting": "DNA polymerase β (rat)", "result": 90, "unit": "nM"},
      {"measurement": "FRET efficiency E", "setting": "DNA polymerase β (rat)", "result": 0.37},
      {"measurement": "EC50", "setting": "[7]", "result": 130, "unit": "nM"},
      {"measurement": "EC50", "setting": "[4]", "result": 120, "unit": "nM"},
      {"measurement": "stoichiometry N", "setting": "[4]", "result": 2}
    ]},
    {"substance": "human X-ray repair cross-complementing protein 1 (from UniProt P18887 1-633) (natural protein)", "values": [
      {"measurement": "EC50", "setting": "[8]", "result": 78, "unit": "nM"},
      {"measurement": "EC50", "setting": "[9]", "result": 51, "unit": "nM"},
      {"measurement": "EC50", "setting": "[10]", "result": 83, "unit": "nM"}
    ]},
    {"substance": "nick-pUC19", "values": [
      {"measurement": "K half", "setting": "XRCC1 (human); TAF-XRCC1, n 0.60, nicked by N.Bst9I", "result": 10, "unit": "nM"},
      {"measurement": "K half", "setting": "[1]; nicked by N.Bst9I", "result": 30, "unit": "nM"}
    ]},
    {"substance": "pUC19", "values": [
      {"measurement": "K half", "setting": "XRCC1 (human); TAF-XRCC1, n 0.63", "result": 1700, "unit": "nM"},
      {"measurement": "K half", "setting": "[1]", "result": 2400, "unit": "nM"}
    ]}
  ]
}
